According to PMC7658645, “Aptamer-Based Western Blot for Selective Protein Recognition”:

B1: 3.13 (ssDNA)
DNA: GAGTGTGGTTCCCGGGAGGGCGCCTACGGGTCCCGTATTCGGATTTGTGC
B2: G1 (ssDNA)
DNA: ATACGACTCACTATTAGGGACAAAGCTGACAACCCTTTCATAATCTAACTACATTTATGTGCTAGACTACTGACTAC

What was measured:
[1] = biological target: histone H4 (UniProt P62805 2-103); assay: aptamer blot; on nitrocellulose; all four histone types labeled without selectivity; Dot blot/aptamer blot: 20 mM Tris-HCl, 100 mM NaCl, 5 mM MgCl2, 0.1% BSA (pH not given), 50 nM aptamer in dot blot (membranes equilibrated at 4 C), blots 1 h af
[2] = biological target: Maltose-binding protein (Escherichia coli (strain K12), UniProt P0AEX9 27-396); assay: Western blot, SDS-denatured protein on nitrocellulose; details: label: 5'-Cy5.5

Row | Binder | binding result [1] | binding result [2]
1 | B1 | binds | –
2 | B2 | – | no binding
